± gives the standard deviation of the averaged measurements.
Tests used:
Saccharomyces cerevisiae [1] = assay: protein stability index of tFT-peptide fusion in deletion strain of DAS1 (PSI (0-1 scale)); higher = more stable (slower turnover)
Experimental: (§1)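 MPS profiling in S. cerevisiae of two library types built from selected 12-aa C-degron peptides (IN1, IN2, LN1, LN3, VN2, R1-R5, W1-W3, Atg1 and Rpa12 C-termini): saturation mutagenesis libraries and C-terminal +1 capping libraries (13 aa). Each peptide is fused to the C-terminus of a sfGFP-mCherry timer, after a GGGS linker. Cells are FACS-sorted into 8 mCherry/sfGFP bins and sequenced. PSI runs from 0 (unstable) to 1 (stable), measured once in wild type and in the das1Δ or doa10Δ background.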

Saccharomyces cerevisiae [2] = assay: protein stability index of tFT-peptide fusion in wild type (PSI (0-1 scale)); higher = more stable (slower turnover); settings: genetic background: wild type
Experimental: as §1

Saccharomyces cerevisiae [3] = assay: protein stability index of tFT-peptide fusion (C-terminal peptide) (PSI (0-1 scale)); higher = more stable (slower turnover); settings: temperature: 30 C
Experimental: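 MPS profiling in S. cerevisiae of the yeast C-terminome library: the last 12 aa of each annotated ORF are fused to the C-terminus of a sfGFP-mCherry timer, after a GGGS linker. Cells are FACS-sorted into 8 mCherry/sfGFP bins and deep-sequenced. PSI runs from 0 (unstable) to 1 (stable); wild type and das1Δ backgrounds, two technical replicates each.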

[4] = genetic background: das1 deletion
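For protein stability index of tFT-peptide fusion in deletion strain of DAS1 in this document: PSI is a weighted mean of each variant's read distribution over the sorted stability bins, computed only for variants having over 10 reads in total.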
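For protein stability index of tFT-peptide fusion in wild type in this document: PSI derived as read-weighted mean over the 8 sorting bins, only variants exceeding 10 total reads kept, mCherry placed adjacent to the peptide and sfGFP distal.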

Sequence	protein stability index (Saccharomyces cerevisiae [1])	protein stability index (Saccharomyces cerevisiae [2])	protein stability index (Saccharomyces cerevisiae [3]; [4])	protein stability index (Saccharomyces cerevisiae [3]; genetic background: wild type)
ARWRVGLWRGQS	0.695	0.416		
KKHKKGQKQKIF	0.602	0.218		
VRGAVGGWREVG	0.654	0.504		
PKLAASFWRVVG	0.691	0.172		
ARWRWGLWRGAS	0.681	0.55		
KKQKKGQKQKIN	0.566	0.177		
FYMRWTFRYWVN	0.351	0.044		
VAGAVGGWRLVG	0.681	0.142		
PSLAASFWRVVQ	0.711	0.252		
VRGAVGGWRLVGD	0.694	0.646		
LKILRQKMRHQN	0.669	0.301		
PSLAASFWRVVGN	0.689	0.651		
RLIQPLPVQFQN	0.548	0.366		
LVVYLSCVTCIN	0.0605	0.0223		
CTSCGTKFRTNN	0.693	0.552		
PSKAASFWRVVG	0.686	0.139		
ADKRNHLIKLLN	0.587	0.129		
ARVRVGLWRGAS	0.694	0.599		
FSMRWWFRYWVN	0.533	0.0988		
CTSCDYKFRTNN	0.689	0.556		
RLIQPLPVCFLN	0.582	0.0773		
PSLAASFWRVMG	0.664	0.144		

Sequence	protein stability index (Saccharomyces cerevisiae [1])	protein stability index (Saccharomyces cerevisiae [2])	protein stability index (Saccharomyces cerevisiae [3]; [4])	protein stability index (Saccharomyces cerevisiae [3]; genetic background: wild type)
LKILRQKMNHAN	0.657	0.196		
VRGAVGGQRLVG	0.677	0.643		
PSLAASFWRVVT	0.693	0.147		
PDKRNHLYKLLN	0.598	0.196		
VCGAVGGWRLVG	0.686	0.118		
ARMRVGLWRGAS	0.702	0.645		
PDKRNPLIKLLN	0.581	0.42		
LKILRQKMNHQNS	0.671	0.521		
RLIQPLPYQFLN	0.621	0.0818		
VRGAVGGWPLVG	0.692	0.596		
CTSCGYKFRTNNM	0.69	0.679		
RLIQSLPVQFLN	0.574	0.0478		
RLIQPLPVQFLNT	0.639	0.614		
LKILRIKMNHQN	0.66	0.19		
CTSIGYKFRTNN	0.695	0.153		
ASMRWTFRYWVN	0.602	0.0684		
FSMRWTFRYWVH	0.439	0.094		
VRGAVGGWCLVG	0.674	0.441		
PDKRNHLSKLLN	0.659	0.136		
LVVYLSCVACIF	0.029	0.0136		
CTSCGYKFRTSN	0.704	0.273		
LVVYLSLVACIN	0.0617	0.0258		

Sequence	protein stability index (Saccharomyces cerevisiae [1])	protein stability index (Saccharomyces cerevisiae [2])	protein stability index (Saccharomyces cerevisiae [3]; [4])	protein stability index (Saccharomyces cerevisiae [3]; genetic background: wild type)
PSLAAFFWRVVG	0.691	0.13		
ARDRVGLWRGAS	0.716	0.575		
FSMRTTFRYWVN	0.623	0.0969		
RLIQPIPVQFLN	0.597	0.0323		
CTSSGYKFRTNN	0.634	0.413		
PDKRNHLIHLLN	0.586	0.0992		
LKILPQKMNHQN	0.686	0.417		
KKHKKGQVQKIN	0.649	0.152		
CTYCGYKFRTNN	0.705	0.269		
FSMTWTFRYWVN	0.568	0.0417		
FSMRETFRYWVN	0.596	0.048		
PDKRNHLIELLN	0.702	0.272		
LVEYLSCVACIN	0.373	0.247		
RLIQRLPVQFLN	0.646	0.0385		
PSLYASFWRVVG	0.674	0.0956		
CTSCGYKFRTVN	0.705	0.15		
FSMRWTFRYWPN	0.528	0.525		
PSLAASFWRVKG	0.664	0.549		
LVVYLSCVAEIN	0.0269	0.0146		
GRWRVGLWRGAS	0.691	0.447		
KKWKKGQKQKIN	0.561	0.0754		
LKILRQHMNHQN	0.662	0.201		

Sequence	protein stability index (Saccharomyces cerevisiae [1])	protein stability index (Saccharomyces cerevisiae [2])	protein stability index (Saccharomyces cerevisiae [3]; [4])	protein stability index (Saccharomyces cerevisiae [3]; genetic background: wild type)
PDKRNHLIKLLNG	0.662	0.17		
KKIKKGQKQKIN	0.58	0.06		
KRHKKGQKQKIN	0.634	0.0723		
KVVYLSCVACIN	0.0792	0.0215		
VRGAFGGWRLVG	0.668	0.144		
YDKRNHLIKLLN	0.581	0.138		
RLDQPLPVQFLN	0.808	0.0831		
VRGYVGGWRLVG	0.69	0.174		
ARKRVGLWRGAS	0.691	0.517		
CTSCKYKFRTNN	0.69	0.376		
PSLAQSFWRVVG	0.699	0.188		
VRGAMGGWRLVG	0.746	0.202		
ARWRVGLWRLAS	0.672	0.0888		
PDKRNHLIKLLNT	0.663	0.144		
LKILRQGMNHQN	0.667	0.49		
LKILRQKTNHQN	0.69	0.403		
PSLAASFKRVVG	0.677	0.683		
ARWRVGLWRGASK	0.622	0.672		
RLIQPLPVQPLN	0.579	0.587		
KKHKKGQTQKIN	0.591	0.0981		
FSLRWTFRYWVN	0.467	0.0436		
CTSCGYRFRTNN	0.679	0.464		

Sequence	protein stability index (Saccharomyces cerevisiae [1])	protein stability index (Saccharomyces cerevisiae [2])	protein stability index (Saccharomyces cerevisiae [3]; [4])	protein stability index (Saccharomyces cerevisiae [3]; genetic background: wild type)
FSMRWTFRYDVN	0.572	0.524		
LKILRQDMNHQN	0.643	0.647		
RLIQPLPVQFLE	0.743	0.633		
ARWRSGLWRGAS	0.676	0.665		
YLARRKPSIELR [YPR170W-B C-terminal 12 aa]			0.716 ± 0.03	0.7212 ± 0.0052
VIFLFLRTIHFL [PGC1 C-terminal 12 aa]			0.501 ± 0.015	0.142 ± 0.0083
RRSQLREHACVD [LDB7 C-terminal 12 aa]			0.707 ± 0.013	0.7096 ± 0.0049
SVFIASLLLAII [FLO1 C-terminal 12 aa]			0.31 ± 0.0059	0.323 ± 0.021
GAGAFAVGALLL [NCW2 C-terminal 12 aa]			0.7034 ± 0.0019	0.687 ± 0.026
EEEKRHGIYLKC [GUP1 C-terminal 12 aa]			0.694 ± 0.029	0.647 ± 0.019
TSIESALITLDL [MER1 C-terminal 12 aa]			0.682 ± 0.016	0.695 ± 0.032
RDLHVEHDNEFY [RPD3 C-terminal 12 aa]			0.718 ± 0.019	0.662 ± 0.074
NPTALEKGIKDL [TRX3 C-terminal 12 aa]			0.714 ± 0.025	0.69 ± 0.016
KNFQEHLRSING [AGC1 C-terminal 12 aa]			0.695 ± 0.01	0.702 ± 0.032
SIRKKSKYAYAA [TPO1 C-terminal 12 aa]			0.703 ± 0.012	0.642 ± 0.021
MCSIINIQQWYV [YGL182C C-terminal 12 aa]			0.6733 ± 0.0013	0.627 ± 0.01
ANGTSPGVHVRE [IRC15 C-terminal 12 aa]			0.693 ± 0.0096	0.678 ± 0.017
AGAAAVANQGKK [GPM1 C-terminal 12 aa]			0.697 ± 0.016	0.715 ± 0.064
